Laboratory results as given in US20180244725.

Target: T1, R5 peptide
T1 chain: SSKKSGSYSGSKGSKRRIL

B1: GALNT1 (protein)
chain: GLPAGDVLEPVQKPHEGPGEMGKPVVIPKEDQEKMKEMFKINQFNLMASEMIALNRSLPDVRLEGCKTKVYPDNLPTTSVVIVFHNEAWSTLLRTVHSVINRSPRHMIEEIVLVDDASERDFLKRPLESYVKKLKVPVHVIRMEQRSGLIRARLKGAAVSKGQVITFLDAHCECTVGWLEPLLARIKHDRRTVVCPIIDVISDDTFEYMAGSDMTYGGFNWKLNFRWYPVPQREMDRRKGDRTLPVRTPTMAGGLFSIDRDYFQEIGTYDAGMDIWGGENLEISFRIWQCGGTLEIVTCSHVGHVFRKATPYTFPGGTGQIINKNNRRLAEVWMDEFKNFFYIISPGVTKVDYGDISSRVGLRHKLQCKPFSWYLENIYPDSQIPRHYFSLGEIRNVETNQCLDNMARKENEKVGIFNCHGMGGNQVFSYTANKEIRTDDLCLDVSKLNGPVTMLKCHHLKGNQLWEYDPVKLTLQHVNSNQCLDKATEEDSQVPSIRDCNGSRSQQWLLRNVTLPEIF
B1 was tested, and the “enzymatic modification of R5 (Glycosylation)” value was “resulted in no modifications”.

B2: NMT2 (protein)
chain: MAEDSESAASQQSLELDDQDTCGIDGDNEEETEHAKGSPGGYLGAKKKKKKQKRKKEKPNSGGTKSDSASDSQEIKIQQPSKNPSVPMQKLQDIQRAMELLSACQGPARNIDEAAKHRYQFWDTQPVPKLDEVITSHGAIEPDKDNVRQEPYSLPQGFMWDTLDLSDAEVLKELYTLLNENYVEDDDNMFRFDYSPEFLLWALRPPGWLLQWHCGVRVSSNKKLVGFISAIPANIRIYDSVKKMVEINFLCVHKKLRSKRVAPVLIREITRRVNLEGIFQAVYTAGVVLPKPIATCRYWHRSLNPRKLVEVKFSHLSRNMTLQRTMKLYRLPDVTKTSGLRPMEPKDIKSVRELINTYLKQFHLAPVMDEEEVAHWFLPREHIIDTFVVESPNGKLTDFLSFYTLPSTVMHHPAHKSLKAAYSFYNIHTETPLLDLMSDALILAKSKGFDVFNALDLMENKTFLEKLKFGIGDGNLQYYLYNWRCPGTDSEKVGLVLQ
For B2, the “enzymatic modification of R5 (Lipidation)” value was “resulted in no modifications”.

B3: BRSK2 (protein)
chain: MWPPDPDPDPDPEPAGGSRPGPAVPGLRALLPARAFLCSLKGRLLLAESGLSFITFICYVASSASAFLTAPLLEFLLALYFLFADAMQLNDKWQGLCWPMMDFLRCVTAALIYFAISITAIAKYSDGASKAAGVFGFFATIVFATDFYLIFNDVAKFLKQGDSADETTAHKTEEENSDSDSD
With B3 the “enzymatic modification of R5 (Phosphorylation)” value was “resulted in no modifications”.

B4: OGT (protein)
chain: ASSVGNVADSTEPTKRMLSFQGLAELAHREYQAGDFEAAERHCMQLWRQEPDNTGVLLLLSSIHFQCRRLDRSAHFSTLAIKQNPLLAEAYSNLGNVYKERGQLQEAIEHYRHALRLKPDFIDGYINLAAALVAAGDMEGAVQAYVSALQYNPDLYCVRSDLGNLLKALGRLEEAKACYLKAIETQPNFAVAWSNLGCVFNAQGEIWLAIHHFEKAVTLDPNFLDAYINLGNVLKEARIFDRAVAAYLRALSLSPNHAVVHGNLACVYYEQGLIDLAIDTYRRAIELQPHFPDAYCNLANALKEKGSVAEAEDCYNTALRLCPTHADSLNNLANIKREQGNIEEAVRLYRKALEVFPEFAAAHSNLASVLQQQGKLQEALMHYKEAIRISPTFADAYSNMGNTLKEMQDVQGALQCYTRAIQINPAFADAHSNLASIHKDSGNIPEAIASYRTALKLKPDFPDAYCNLAHCLQIVCDWTDYDERMKKLVSIVADQLEKNRLPSVHPHHSMLYPLSHGFRKAIAERHGNLCLDKINVLHKPPYEHPKDLKLSDGRLRVGYVSSDFGNHPTSHLMQSIPGMHNPDKFEVFCYALSPDDGTNFRVKVMAEANHFIDLSQIPCNGKAADRIHQDGIHILVNMNGYTKGARNELFALRPAPIQAMWLGYPGTSGALFMDYIITDQETSPAEVAEQYSEKLAYMPHTFFIGDHANMFPHLKKKAVIDFKSNGHIYDNRIVLNGIDLKAFLDSLPDVKIVKMKCPDGGDNADSSNTALNMPVIPMNTIAEAVIEMINRGQIQITINGFSISNGLATTQINNKAATGEEVPRTIIVTTRSQYGLPEDAIVYCNFNQLYKIDPSTLQMWANILKRVPNSVLWLLRFPAVGEPNIQQYAQNMGLPQNRIIFSPVAPKEEHVRRGQLADVCLDTPLCNGHTTGMDVLWAGTPMVTMPGETLASRVAASQLTCLGCLELIAKNRQEYEDIAVKLGTDLEYLKKVRGKVWKQRISSPLFNTKQYTMELERLYLQMWEHYAAGNKPDHMIKPVEVTESA
For B4, the “enzymatic modification of R5 (Glycosylation)” value was “resulted in no modifications”.

B5: deoxyhypusine synthase (DHPS) (protein)
chain: MEGSLEREAPAGALAAVLKHSSTLPPESTQVRGYDFNRGVNYRALLEAFGTTGFQATNFGRAVQQVNAMIEKKLEPLSQDEDQHADLTQSRRPLTSCTIFLGYTSNLISSGIRETIRYLVQHNMVDVLVTTAGGVEEDLIKCLAPTYLGEFSLRGKELRENGINRIGNLLVPNENYCKFEDWLMPILDQMVMEQNTEGVKWTPSKMIARLGKEINNPESVYYWAQKNHIPVFSPALTDGSLGDMIFFHSYKNPGLVLDIVEDLRLINTQAIFAKCTGMIILGGGVVKHHIANANLMRNGADYAVYINTAQEFDGSDSGARPDEAVSWGKIRVDAQPVKVYADASLVFPLLVAETFAQKMDAFMHEKNED
B5 was tested, and the “hypusination of R5 (LC-MS time course)” value was “A time course showing the conversion of two lysine to hypusine residues was determined by LC-MS”.

B6: POMT1 (protein)
chain: MWGFLKRPVVVTADINLSLVALTGMGLLSRLWRLTYPRAVVFDEVYYGQYISFYMKQIFFLDDSGPPFGHMVLALGGYLGGFDGNFLWNRIGAEYSSNVPVWSLRLLPALAGALSVPMAYQIVLELHFSHCAAMGAALLMLIENALITQSRLMLLESVLIFFNLLAVLSYLKFFNCQKHSPFSLSWWFWLTLTGVACSCAVGIKYMGVFTYVLVLGVAAVHAWHLLGDQTLSNVGADVQCCMRPACMGQMQMSQGVCVFCHLLARAVALLVIPVVLYLLFFYVHLILVFRSGPHDQIMSSAFQASLEGGLARITQGQPLEVAFGSQVTLRNVFGKPVPCWLHSHQDTYPMIYENGRGSSHQQQVTCYPFKDVNNWWIVKDPRRHQLVVSSPPRPVRHGDMVQLVHGMTTRSLNTHDVAAPLSPHSQEVSCYIDYNISMPAQNLWRLEIVNRGSDTDVWKTILSEVRFVHVNTSAVLKLSGAHLPDWGYRQLEIVGEKLSRGYHGSTVWNVEEHRYGASQEQRERERELHSPAQVDVSRNLSFMARFSELQWRMLALRSDDSEHKYSSSPLEWVTLDTNIAYWLHPRTSAQIHLLGNIVIWVSGSLALAIYALLSLWYLLRRRRNVHDLPQDAWLRWVLAGALCAGGWAVNYLPFFLMEKTLFLYHYLPALTFQILLLPVVLQHISDHLCRSQLQRSIFSALVVAWYSSACHVSNTLRPLTYGDKSLSPHELKALRWKDSWDILIRKH
For B6, the “enzymatic modification of R5 (Glycosylation)” value was “resulted in no modifications”.

B7: vopS (protein)
chain: GKEYTINAATQEFTRANPTSGAVARFFEATGKLFREGSTQSVAKAITKAVFDNEQGQAQRLQTSSSVEHGQMLFKDANLKTPSDVLNAFAKLDSKMVKSHAAELSQLAERAMTEVMLETDSGKNLKALIGDDAVKSLAVRVVKDYGGGVAAAQKNPEVRINQMQAVFDMEVMHLKAAQRHIEGLASTDLNQGVYAEGLPEDAFNKAGVTNNVERAAAWIINASNSKGNDAENITSLLKEYATNGKDLLNMDNLKELHARLVPNVERDYRGPNISGGTLPSSIGGEGMLKQHIEGFLKENPVADKDLGKHLFAGVIGYHGFTDGNGRMGRMLYAIAELRNDSFNPLAMNAENSLHGIK
With B7 the “enzymatic modification of R5 (Adenylylation)” value was “resulted in no modifications”.

B8: deoxyhypusine hydroxulase (DOHH) (protein)
chain: MVTEQEVDAIGQTLVDPKQPLQARFRALFTLRGLGGPGAIAWISQAFDDDSALLKHELAYCLGQMQDARAIPMLVDVLQDTRQEPMVRHEAGEALGAIGDPEVLEILKQYSSDPVIEVAETCQLAVRRLEWLQQHGGEPAAGPYLSVDPAPPAEERDVGRLREALLDESRPLFERYRAMFALRNAGGEEAALALAEGLHCGSALFRHEVGYVLGQLQHEAAVPQLAAALARCTENPMVRHECAEALGAIARPACLAALQAHADDPERVVRESCEVALDMYEHETGRAFQYADGLEQLRGAPS
In the case of B8, the “hypusination of R5 (LC-MS time course)” value is reported as “A time course showing the conversion of two lysine to hypusine residues was determined by LC-MS”.

B9: lysine methyltransferase SETD7 (SET7/9) (protein)
chain: MDSDDEMVEEAVEGHLDDDGLPHGFCTVTYSSTDRFEGNFVHGEKNGRGKFFFFDGSTLEGYYVDDALQGQGVYTYEDGGVLQGTYVDGELNGPAQEYDTDGRLIFKGQYKDNIRHGVCWIYYPDGGSLVGEVNEDGEMTGEKIAYVYPDERTALYGKFIDGEMIEGKLATLMSTEEGRPHFELMPGNSVYHFDKSTSSCISTNALLPDPYESERVYVAESLISSAGEGLFSKVAVGPNTVMSFYNGVRITHQEVDSRDWALNGNTLSLDEETVIDVPEPYNHVSKYCASLGHKANHSFTPNCIYDMFVHPRFGPIKCIRTLRAVEADEELTVAYGYDHSPPGKSGPEAPEWYQVELKAFQATQQK
With B9 the “methylation of R5 (LC-MS time course)” value was “A time course showing the incorporation of zero to 16 methyl groups into R5”.

B10: SET7/9 Y305F (protein)
chain: MDSDDEMVEEAVEGHLDDDGLPHGFCTVTYSSTDRFEGNFVHGEKNGRGKFFFFDGSTLEGYYVDDALQGQGVYTYEDGGVLQGTYVDGELNGPAQEYDTDGRLIFKGQYKDNIRHGVCWIYYPDGGSLVGEVNEDGEMTGEKIAYVYPDERTALYGKFIDGEMIEGKLATLMSTEEGRPHFELMPGNSVYHFDKSTSSCISTNALLPDPYESERVYVAESLISSAGEGLFSKVAVGPNTVMSFYNGVRITHQEVDSRDWALNGNTLSLDEETVIDVPEPYNHVSKYCASLGHKANHSFTPNCIFDMFVHPRFGPIKCIRTLRAVEADEELTVAYGYDHSPPGKSGPEAPEWYQVELKAFQATQQK
In the case of B10, the “methylation of R5 (LC-MS time course)” value is reported as “A time course showing the incorporation of zero to 16 methyl groups into R5”.

B11: LplA (protein)
chain: STLRLLISDSYDPWFNLAVEECIFRQMPATQRVLFLWRNADTVVIGRAQNPWKECNTRRMEEDNVRLARRSSGGGAVFHDLGNTCFTFMAGKPEYDKTISTSIVLNALNALGVSAEASGRNDLVVKTVEGDRKVSGSAYRETKDRGFHHGTLLLNADLSRLANYLNPDKKKLAAKGITSVRSRVTNLTELLPGITHEQVCEAITEAFFAHYGERVEAEIISPNKTPDLPNFAETFARQSSWEWNFGQAPAFSHLLDERFTWGGVELHFDVEKGHITRAQVFTDSLNPAPLEALAGRLQGCLYRADMLQQECEALLVDFPEQEKELRELSAWMAGAVR
For B11, the “enzymatic modification of R5 (Lipidation)” value was “resulted in no modifications”.

B12: LipB (protein)
chain: MYQDKILVRQLGLQPYEPISQAMHEFTDTRDDSTLDEIWLVEHYPVFTQGQAGKAEHILMPGDIPVIQSDRGGQVTYHGPGQQVMYVLLNLKRRKLGVRELVTLLEQTVVNTLAELGIEAHPRADAPGVYVGEKKICSLGLRIRRGCSFHGLALNVNMDLSPFLRINPCGYAGMEMAKISQWKPEATTNNIAPRLLENILALLNNPDFEYITA
With B12 the “enzymatic modification of R5 (Lipidation)” value was “resulted in no modifications”.
